Laboratory results: US9012217B2, “Benzimidazole compounds differentiate a mammalian stem cell into mesodermal or cardiomyocyte cells” (Burnham Institute for Medical Research, priority 2008, dated 2015)

B1: BMP4 (protein, UniProt P12644 293-408, looked up)
Bone morphogenetic protein 4: SPKHHSQRARKKNKNCRRHSLYVDFSDVGWNDWIVAPPGYQAFYCHGDCPFPLADHLNSTNHAIVQTLVNSVNSSIPKACCVPTELSAISMLYLDEYDKVVLKNYQEMVVEGCGCR
notes: "posteriorizing growth factors such as BMP4"
B2: Activin A (protein, UniProt P08476 311-426, looked up)
Inhibin beta A chain: GLECDGKVNICCKKQFFVSFKDIGWNDWIIAPSGYHANYCEGECPSHIAGTSGSSLSFHSTVINHYRMRGHSPFANLKSCCVPTKLRPMSMLYYDDGQNIIKKDIQNMIVEECGCS
notes: "an inducer of anterior mesoderm and endoderm"

Legend:
[1] = system: CGR8 mESCs stably transfected with eGFP under control of the alpha myosin heavy chain (aMHC) promoter; assay: cardiomyocyte screening assay (aMHC-eGFP mESC differentiation, imaging); format: cell-based, mouse; settings: structure IIA; activity relative to compound 28 = 100%
Method: The primary screen is conducted with CGR8 mESCs stably transfected with eGFP under control of the alpha myosin heavy chain (aMHC) promoter (Takahashi, et al., Circulation, 107(14):1912, 2003). The bioassay is run essentially as described (Bushway et al., Methods Enzymol, 414:300, 2006). Briefly, cells were seeded onto Greiner 384 well microclear bottom microtiter plates in ½ well volume at a density of ˜229 cells/mm2. […]
The optimal time to stop the differentiation is empirically determined to be at day 9 of differentiation, when cardiomyocytes appear in positive control cultures that have higher density cells or culture the cells in embryoid body (not monolayer) culture. […] Image quantification is done using a simple image subtraction routine that subtracted the red channel images from the green (eGFP) channel images to remove background signal from the eGFP images. […]
Follow-up confirmations and testing of hits for SAR were performed on the Hamilton STAR fluid handler with integrated Kendro Cytomat plate hotel and Kendro Cytomat plate incubators using the Hamilton STAR liquid handler robot. […] Image quantification is performed on captured TIFF images using the Developer Toolbox (GE/Amersham) with custom algorithms. […]

[2] = system: mESC; assay: serum-free mESC cardiac differentiation assay (day 2 to day 4 exposure); format: cell-based, mouse; settings: added alone, day 2 to day 4, serum free
Method: To define the point of action in more detail, a more focused assay is designed to probe the activities of the compounds between days 2-4 of differentiation. Of note is that the original assay is performed in the presence of serum, which activates many pathways that obscure the targets of the small molecules. Since serum activates many pathways and many genes, its presence confounds analysis of downstream targets. Thus, a serum-free mESC cardiac differentiation assay is set up to more precisely validate the activity of the compounds and determine if they acted independently or synergized with a known inducer. The refined assay, diagrammed in FIG. 4, tested the ability of the small molecules to stimulate mesodermal differentiation from day 2 to day 4. Differentiation is initiated by aggregating mESC into embryoid bodies (EBs) in serum free conditions. Day 2 EBs were dispersed in the presence of growth factors or small molecules to allow maximal exposure. Cells were allowed to re-aggregate into EBs until day 4 when they were dispersed and plated in conducive conditions for cardiac differentiation to day 9, at which point eGFP is imaged and quantified by the algorithm described above.
FIG. 5 summarizes experiments showing synergy with Activin/Nodal signaling.

| Molecule | Activity [1] | cardiogenesis (cardiomyocytes at day 9) [2] |
| --- | --- | --- |
| COc1nnc(Nc2ccc3c(c2)ncn3C2CC2)c2ccccc12 [Compound 104] | INACTIVE | – |
| B1 | – | does not |
| B2 | – | efficient cardiogenesis |
